According to paper PMC10989928, “Cell division factor ZapE regulates Pseudomonas aeruginosa biofilm formation by impacting the pqs quorum sensing system” (mLife, 2023):

Molecular target: T1, MBP-PqsH, recombinant (P. aeruginosa PAO1, UniProt Q9I0Q0 1-382)
T1 construct: also called PqsH protein; source: E. coli BL21 (DE3), pMAL-C5x, purified (Dextrin Beads 6FF, Mono Q ion exchange, Superdex 200 gel filtration)
T1 sequence: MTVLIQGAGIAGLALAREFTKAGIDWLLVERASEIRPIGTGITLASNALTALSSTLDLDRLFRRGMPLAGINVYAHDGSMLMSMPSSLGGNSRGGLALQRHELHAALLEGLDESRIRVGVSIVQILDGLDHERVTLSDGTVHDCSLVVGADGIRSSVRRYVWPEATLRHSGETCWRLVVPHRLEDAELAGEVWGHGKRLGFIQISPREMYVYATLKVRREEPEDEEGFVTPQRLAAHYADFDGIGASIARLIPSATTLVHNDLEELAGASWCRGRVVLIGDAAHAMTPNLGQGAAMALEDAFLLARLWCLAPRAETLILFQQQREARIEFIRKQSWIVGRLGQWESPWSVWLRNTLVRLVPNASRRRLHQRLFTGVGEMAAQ
Test: SPR
Conditions: both partners purified

B1: HIS-ZapE, recombinant (natural protein, P. aeruginosa PAO1, UniProt Q9HVX7 1-364, looked up)
chain: MTPLERYQADLQRPDFFHDAAQANAVKHLQRLYDDLVAADHAKPGLFGKLLGRKSGGPVKGLYFWGGVGRGKTYLVDTFFESLPFEQKVRTHFHRFMKRVHEELKTLKGEKNPLTIIGKRFADEARVICFDEFFVSDITDAMILATLLEELFKNGVSLVATSNIVPDGLYKDGLQRARFLPAIALLKEHTEIVNVDSGVDYRLRALEQAELFHWPLSEQVEEEMARSFKALTPDCAKAQRDEALMIENREIRARLTCDDVAWFEFRELCDGPRSQNDYIELAKIFHAVLISNVEQMGVTKDDMARRFINLVDEFYDRSVKLIISAEVELKDLYSGGRLEFEFQRTLSRLLEMQSHEYLTRPHRP
notes: also called PA4438; ZapE protein; source: E. coli BL21 (DE3), pET28a, purified (Ni NTA beads, Mono Q ion exchange, Superdex 200 gel filtration)
- binding result: binds
